Source: patent US20210283212A1 (RA PHARMACEUTICALS, published 2021)
Starred links: 1 amine or outer side, 2 acyl side, 3 side chain; linkers in the order of their positions; H or OH if unused. Positions of bridges follow the written chain, without caps; N, C: chain ends. Non-standard residues stand in square brackets, D forms with d. Primed or numbered codes have the meaning given here. No end group written: not given here. Lys‑C8 = N-ε-caprylic lysine, CCCCCCCC(=O)NCCCC[C@H](N[*:1])C(=O)[*:2]; mXylyl(3) = bridging moiety between the two residues given in brackets; m‑xylyl = bridging moiety between the two residues given in brackets; mXylyl″ = bridging moiety between the two marked residues; Ala(1H-tetrazol-5-yl) = N[C@@H](Cc1nnn[nH]1)C(=O)O; Trp(7-aza) = N[C@@H](Cc1c[nH]c2ncccc12)C(=O)O; mXylyl(4) = bridging moiety between residues; NMeD = CN[C@@H](CC(=O)O)C(=O)O; dPhg = N[C@@H](C(=O)O)c1ccccc1; Chg = N[C@H](C(=O)O)C1CCCCC1; Phg = N[C@H](C(=O)O)c1ccccc1; Tle = CC(C)(C)[C@H](N)C(=O)O; Lys‑C12 = N-ε-lauryl lysine; NMeS = CN[C@@H](CO)C(=O)O; NMeA = CN[C@@H](C)C(=O)O; Nva = CCC[C@H](N)C(=O)O; Sar = CNCC(=O)O

B1: R3001 (peptide)
peptide: Ac-[Nva]CYEN[Tle]Y[Trp(7-aza)]EY[Sar][Nva][NMeS]-NH2
SMILES: CCC[C@H](NC(C)=O)C(=O)N[C@@H](CS)C(=O)N[C@@H](Cc1ccc(O)cc1)C(=O)N[C@@H](CCC(=O)O)C(=O)N[C@@H](CC(N)=O)C(=O)N[C@H](C(=O)N[C@@H](Cc1ccc(O)cc1)C(=O)N[C@@H](Cc1c[nH]c2ncccc12)C(=O)N[C@@H](CCC(=O)O)C(=O)N[C@@H](Cc1ccc(O)cc1)C(=O)N(C)CC(=O)N[C@@H](CCC)C(=O)N(C)[C@@H](CO)C(N)=O)C(C)(C)C
B2: R3023 (peptide)
peptide: Ac-YPYC[Phg][Trp(7-aza)][Tle]E[Nva]NY[Nva]E-NH2
SMILES: CCC[C@H](NC(=O)[C@H](Cc1ccc(O)cc1)NC(=O)[C@H](CC(N)=O)NC(=O)[C@H](CCC)NC(=O)[C@H](CCC(=O)O)NC(=O)[C@@H](NC(=O)[C@H](Cc1c[nH]c2ncccc12)NC(=O)[C@@H](NC(=O)[C@H](CS)NC(=O)[C@H](Cc1ccc(O)cc1)NC(=O)[C@@H]1CCCN1C(=O)[C@H](Cc1ccc(O)cc1)NC(C)=O)c1ccccc1)C(C)(C)C)C(=O)N[C@@H](CCC(=O)O)C(N)=O
B3: R3028 (peptide)
peptide: Ac-[Tle]Y[Trp(7-aza)]EYP[Phg][Nva]-NH2
SMILES: CCC[C@H](NC(=O)[C@@H](NC(=O)[C@@H]1CCCN1C(=O)[C@H](Cc1ccc(O)cc1)NC(=O)[C@H](CCC(=O)O)NC(=O)[C@H](Cc1c[nH]c2ncccc12)NC(=O)[C@H](Cc1ccc(O)cc1)NC(=O)[C@@H](NC(C)=O)C(C)(C)C)c1ccccc1)C(N)=O

molecular target: human C5 protein (human, UniProt P01031 19-673; P01031 678-1676); assay: cell-based or functional assay

Q: Which “Avg. IC50, human hemolysis assay” value does the source give for Ac-CVEAFCD[Tle]Y[Trp(7-aza)]EYP[Phg][Nva]-NH2 (linker 1-6 via mXylyl(3)) [R3153] here?
A: Its value is 175 nM.

Q: Which “Avg. IC50, human hemolysis assay” value does the source give for Ac-CVEAFCD[Tle]Y[Trp(7-aza)]EYP[dPhg][Nva]-NH2 (linker 1-6 via mXylyl(3)) [R3154] here?
A: The value was 592 nM.

Q: Ac-CVERACD[Tle]Y[Trp(7-aza)]EYP[Phg][Nva]-NH2 (linker 1-6 via mXylyl(3)) [R3155] was tested. Which “Avg. IC50, human hemolysis assay” value did it give?
A: The value was 1530 nM.

Q: Which “Avg. IC50, human hemolysis assay” value does the source give for Ac-CVERACD[Tle]Y[Trp(7-aza)]EYP[dPhg][Nva]-NH2 (linker 1-6 via mXylyl(3)) [R3156] here?
A: Its value is > 10000 nM.

Q: How did the “Avg. IC50, human hemolysis assay” value turn out when Ac-CVERFCA[Tle]Y[Trp(7-aza)]EYP[Phg][Nva]-NH2 (linker 1-6 via m‑xylyl) [R3157] was run?
A: Its value is 84.5 nM.

Q: Ac-CVERFCA[Tle]Y[Trp(7-aza)]EYP[dPhg][Nva]-NH2 (linker 1-6 via m‑xylyl) [R3158] was tested. Which “Avg. IC50, human hemolysis assay” value did it give?
A: Its value is 327 nM.

Q: Which “Avg. IC50, human hemolysis assay” value does the source give for Ac-C[Phg]T[Trp(7-aza)]EY[NMeS]HC-NH2 (linker 1-9 via mXylyl″) [R3015] here?
A: The value was > 3960 nM.

Q: Ac-CAERFCD[Tle]Y[Trp(7-aza)]EYP[Phg]K-NH2 (linker 1-6 via m‑xylyl) [R3161] was tested. Which “Avg. IC50, human hemolysis assay” value did it give?
A: Its value is 7 nM.

Q: For Ac-CAERFCD[Tle]Y[Trp(7-aza)]EYP[dPhg]K-NH2 (linker 1-6 via m‑xylyl) [R3162], which “Avg. IC50, human hemolysis assay” value is on record?
A: The value was 16.5 nM.

Q: Ac-CAERFCD[Tle]Y[Trp(7-aza)]EYP[Phg][Lys‑C12]-NH2 (linker 1-6 via m‑xylyl) [R3164] was tested. Which “Avg. IC50, human hemolysis assay” value did it give?
A: Its value is 36 nM.

Q: For Ac-CAERFCD[Tle]Y[Trp(7-aza)]EYP[Phg][Lys‑C8]-NH2 (linker 1-6 via m‑xylyl) [R3166], which “Avg. IC50, human hemolysis assay” value is on record?
A: The value was 17.5 nM.

Q: Ac-CVERFC[Ala(1H-tetrazol-5-yl)][Tle]Y[Trp(7-aza)]EYP[Chg][Nva]-NH2 (linker 1-6 via mXylyl(3)) [R3168] was tested. Which “Avg. IC50, human hemolysis assay” value did it give?
A: The value was 7.5 nM.

Q: For Ac-C[Tle]Y[Trp(7-aza)]EY[NMeS]HC-NH2 (linker 1-9 via mXylyl″) [R3016], which “Avg. IC50, human hemolysis assay” value is on record?
A: Its value is > 13000 nM.

Q: With Ac-CVERFC[NMeD][Tle]Y[Trp(7-aza)]EYP[Chg][Nva]-NH2 (linker 1-6 via m‑xylyl) [R3172] as the binder, how does the “Avg. IC50, human hemolysis assay” value read?
A: Its value is 12 nM.

Q: With Ac-[Nva]CYEN[Tle]Y[Trp(7-aza)]ECP[Phg][Nva]-NH2 (linker 2-10 via mXylyl″) [R3018] as the binder, how does the “Avg. IC50, human hemolysis assay” value read?
A: The value was > 5730 nM.

Q: Which “Avg. IC50, human hemolysis assay” value does the source give for B1 here?
A: The value was 67.2 nM.

Q: With Ac-[Nva]CYEN[Tle]Y[Trp(7-aza)]EYP[Phg][Nva]C-NH2 (linker 2-14 via mXylyl″) [R3019] as the binder, how does the “Avg. IC50, human hemolysis assay” value read?
A: Its value is 1320 nM.

Q: How did the “Avg. IC50, human hemolysis assay” value turn out when MCSERYCEVRWEY-NH2 (linker 2-7 via mXylyl″) [R3020] was run?
A: Its value is 24.6 nM.

Q: How did the “Avg. IC50, human hemolysis assay” value turn out when Ac-[Nva]C[Phg]T[Trp(7-aza)]EY[NMeS]HC[Nva]P[Nva]-NH2 (cysteine pairing not given here) [R3022] was run?
A: Its value is > 10200 nM.

Q: Which “Avg. IC50, human hemolysis assay” value does the source give for B2 here?
A: Its value is > 100000 nM.

Q: With B3 as the binder, how does the “Avg. IC50, human hemolysis assay” value read?
A: Its value is > 10000 nM.

Q: Ac-AC[Phg]T[Trp(7-aza)]EY[NMeS]HC[Nva]-NH2 (linker 2-10 via mXylyl(4)) [R3031] was tested. Which “Avg. IC50, human hemolysis assay” value did it give?
A: Its value is 1090 nM.

Q: Ac-[Nva]CAT[Trp(7-aza)]EY[NMeS]HC[Nva]-NH2 (linker 2-10 via mXylyl(4)) [R3032] was tested. Which “Avg. IC50, human hemolysis assay” value did it give?
A: Its value is > 10000 nM.

Q: With Ac-[Nva]C[Phg]A[Trp(7-aza)]EY[NMeS]HC[Nva]-NH2 (linker 2-10 via mXylyl(4)) [R3033] as the binder, how does the “Avg. IC50, human hemolysis assay” value read?
A: The value was 131 nM.

Q: With Ac-[Nva]C[Phg]T[Trp(7-aza)]AY[NMeS]HC[Nva]-NH2 (linker 2-10 via mXylyl(4)) [R3035] as the binder, how does the “Avg. IC50, human hemolysis assay” value read?
A: The value was > 50000 nM.

Q: With Ac-[Nva]C[Phg]T[Trp(7-aza)]EA[NMeS]HC[Nva]-NH2 (linker 2-10 via mXylyl(4)) [R3036] as the binder, how does the “Avg. IC50, human hemolysis assay” value read?
A: Its value is > 50000 nM.

Q: How did the “Avg. IC50, human hemolysis assay” value turn out when Ac-[Nva]C[Phg]T[Trp(7-aza)]EY[NMeA]HC[Nva]-NH2 (linker 2-10 via mXylyl(4)) [R3037] was run?
A: The value was 276 nM.
